The results in this text go back to article PMC7803729.

By Kd is commonly meant the constant that tells how readily two partners part at equilibrium. The term koff denotes the rate constant with which the complex falls apart. Low readings indicate a long-lived complex, high ones a short-lived complex. For orientation: kon means the rate constant with which the complex forms. Low values mean slow association, high ones fast association.

CT-P59 monoclonal antibody (fully human IgG) (human), sequence (heavy, as listed by the source, chain 1 of 2): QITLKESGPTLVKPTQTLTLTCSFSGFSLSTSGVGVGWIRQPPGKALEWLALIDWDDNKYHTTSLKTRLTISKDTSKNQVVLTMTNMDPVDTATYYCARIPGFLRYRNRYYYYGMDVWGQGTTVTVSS
CT-P59 monoclonal antibody (fully human IgG) (human), sequence (light, as listed by the source, chain 2 of 2): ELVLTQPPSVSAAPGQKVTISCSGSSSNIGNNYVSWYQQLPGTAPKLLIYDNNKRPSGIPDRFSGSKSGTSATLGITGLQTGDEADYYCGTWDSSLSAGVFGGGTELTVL

This assay addresses CT-P59 monoclonal antibody (fully human IgG) (human). As to the kind of experiment: BLI.
Take “SARS-CoV-2 RBD V367F (commercial, Sino Biological) (from UniProt P0DTC2) (domain or fragment)”: the Kd turned out to be 292 pM, the koff was determined as 0.000265 s⁻¹ and the kon amounted to 907000 M⁻¹ s⁻¹.

The substance “SARS-CoV-2 RBD W436R (commercial, Sino Biological) (from UniProt P0DTC2) (domain or fragment)” came in with a Kd of 221 pM, a koff of 0.00018 s⁻¹ and a kon of 816000 M⁻¹ s⁻¹.

“SARS-CoV-2 RBD K458R (commercial, Sino Biological) (from UniProt P0DTC2) (domain or fragment)” came in with a Kd of 236 pM, a koff of 0.000246 s⁻¹ and a kon of 1.04e+06 M⁻¹ s⁻¹.

Turning to “SARS-CoV-2 RBD N354D (commercial, Sino Biological) (from UniProt P0DTC2) (domain or fragment)”, the Kd came to 294 pM, the koff was 0.000253 s⁻¹ and the kon stood at 861000 M⁻¹ s⁻¹.
